This passage reports Kd and binding signal (% spike still bound to hACE2) results from article PMC9330529.

Data set [1] has as its target SARS-CoV-2 spike protein WT (SARS-CoV-2 (WT)) (UniProt P0DTC2).
The target is the same in data set [2]. Description: competition ELISA. For orientation: ELISA stands for enzyme-linked immunosorbent assay.
Data set [3] shares this target. This is another data set of the same source.
Data set [4] has the same target. This is another data set of the same source.

Where two headings read alike, the source gives them in different places.

With “AGGCGGGTTCCTAGACTTGTACTCAGCCTTTTTTTTTTTTTTTTCGCAGCACCCAAGAACAAGGACTGCTTAGGATTGCGATAGGTTCGG [S2A2C1-T15-S1B6C3]”, the Kd (commonly the free concentration of one partner at which half of the binding sites on the other are occupied at equilibrium, for simple one-to-one binding) in data set [1] was 61.4 nM.

Regarding “CGCAGCACCCAAGAACAAGGACTGCTTAGGATTGCGATAGGTTCGGAAAAAAAAAAAAAAAAGGCGGGTTCCTAGACTTGTACTCAGCCT [S1B6C3-A15-S2A2C1]”, in data set [2], the binding signal (% spike still bound to hACE2) stood at 12.

As to “CGCAGCACCCAAGAACAAGGACTGCTTAGGATTGCGATAGGTTCGGAAAAAAGGCGGGTTCCTAGACTTGTACTCAGCCT [S1B6C3-A5-S2A2C1]”, the values for the Kd in data set [3] and in data set [4] were 35.8 nM and 34.6 nM, respectively. The sequence further registered a binding signal (% spike still bound to hACE2) in data set [2] of 8.

In data set [1], “CGCAGCACCCAAGAACAAGGACTGCTTAGGATTGCGATAGGTTCGGTTTTTTTTTTTTTTTAGGCGGGTTCCTAGACTTGTACTCAGCCT [S1B6C3-T15-S2A2C1]” had a Kd of 46.1 nM. This sequence registered a binding signal (% spike still bound to hACE2) in data set [2] of 24.
